Measured values taken from the supplement of paper PMC11865577.

Experiments:
Assay in all cases: pull-down binding Z-score (relative to library population); higher = stronger binding
[1] = tested on: TO-N3-2 (biotin conjugate); settings: RNA library: Library-2
Procedure, shortened: (§1)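 Streptavidin beads with 100 pmol of biotin-conjugated small molecule were incubated for 60 min at 25 °C with 1 μg of heat-folded Cy5- or Cy3-end-labelled RNA library in phosphate/NaCl/KCl buffer. Bound RNA was eluted in hot SDS after three washes and hybridised to a DNA barcode microarray at 55.5 °C for 20 h. Each binding score is a library-referenced Z-score, computed after beads-only subtraction and a trimmed mean of barcoded replicate probes.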

[2] = tested on: TO-N3 (biotin conjugate); settings: RNA library: Library-2
Procedure, shortened: as §1

[3] = tested on: TO-3-N3 (biotin conjugate); settings: RNA library: Library-2
Procedure, shortened: as §1

[4] = tested on: TO-3-N3-2 (biotin conjugate); settings: RNA library: Library-2
Procedure, shortened: as §1

[5] = tested on: G-clamp-N3 (biotin conjugate); settings: RNA library: Library-1 (pre-miRNA loops + repeats)
Procedure, shortened: as §1

Sequence	pull-down binding Z-score [1]	pull-down binding Z-score [2]	pull-down binding Z-score [3]	pull-down binding Z-score [4]	pull-down binding Z-score [5]
AGGUUGGCUGGGCCAGGCCUGACCU [hsa-mir-4722]	1.16	0.435	0.0532	-0.00273	0.156
AGGUUUAUGACUGGGCAUUUCUCACCCAAUGCCCAAUAUUGAACUU [hsa-mir-4431]	-0.666	-0.752	-0.564	-0.213	-0.59
AGGUUUGUGUCCAAUACAGUCCACACCU [hsa-mir-3200]	-0.572	-0.879	-0.745	-0.367	-0.861
AGUAGCUGGGAAUACAGGUGUGUGCCACCAUGCCUCUACAAGCUACC [hsa-mir-7851]	0.445	-0.0861	-0.469	-0.134	-0.609
AGUAUGGAUUAAAUUUAUAUUUUCCUCGAUACU [hsa-mir-8084]	-0.547	0.316	0.413	0.212	0.482
AGUAUUUUAAUCAUAGAUUGUAUUUAGUUAGUUUUUAAUACU [hsa-mir-4637]	-0.965	-0.955	-0.732	0.157	-0.0232
AGUCACUUACACUACAUGUCACU [hsa-mir-892a]	-0.587	-1.08	-0.926	-0.63	-0.82
AGUCACUUAGAUUACAUGUCACU [hsa-mir-892c]	-0.486	-0.172	0.00628	0.0543	-1.24
AGUCACUUAGAUUACAUGUGACU [hsa-mir-888]	-0.915	-0.368	0.0487	-0.513	0.394
AGUCCAAAGGAAAGGGCU [hsa-mir-8077]	-0.0277	0.822	0.999	0.232	-0.578
AGUCCGUGCAUCCGCCCUUCGAUGCUUGGGUU [hsa-mir-3182]	0.421	-0.278	-0.405	-0.389	-1.11
AGUCCUGUAAUUAGAUCUCAGGACU [hsa-mir-625]	-0.88	-0.817	-0.745	-0.739	-0.0681
AGUCUCUGAAGAGAGCUGUGGACUGA [hsa-mir-6721]	0.916	0.839	0.726	0.732	1.18
AGUCUGUCUCAUACCCAACCAGAUU [hsa-mir-205]	-0.233	0.14	0.258	0.167	-1.11
AGUGAAAUAAAGGUCCAUCUCCUGCCUAUUUAUUACUUUGCU [hsa-mir-1243]	-0.5	-0.718	-0.671	-0.112	-1.12
AGUGAGCUGAGAUCACGCAACU [hsa-mir-1273f]	0.629	0.206	-0.37	0.00609	0.617
AGUGAGGCGUCGGCUGUGUUUCU [hsa-mir-2110]	1.03	0.741	0.387	0.174	-0.519
AGUGAGUUGAUUACUUCUCACU [hsa-mir-4676]	-0.222	-0.26	-0.0959	-0.441	-0.179
AGUGCAGUAUGGUGAAGUCAAUCUGUAAU [hsa-mir-590]	0.424	-0.148	-0.357	0.0335	1.31

Sequence	pull-down binding Z-score [1]	pull-down binding Z-score [2]	pull-down binding Z-score [3]	pull-down binding Z-score [4]	pull-down binding Z-score [5]
AGUGCCUCACAGCCGCACAGGACCGAGGAUGCU [hsa-mir-4737]	0.917	0.371	0.0032	-0.204	0.613
AGUGCUAGGACACU [hsa-mir-374c]	-0.579	-0.616	-0.441	-0.413	-0.247
AGUGGAAAAAGUUCUUUUCUUCCUCU [hsa-mir-3192]	-0.263	0.0678	0.0782	0.895	0.387
AGUGGACGAGUCUCAUUA [hsa-mir-3193]	0.613	0.678	0.224	0.319	-0.476
AGUGGCCAAUUCCU [hsa-mir-4251]	-0.274	-0.607	-0.482	-0.313	-0.851
AGUGGUGCAAUCUCAGUUCACU [hsa-mir-3135a]	-0.196	-0.0142	0.121	-0.238	-0.112
AGUGUGCAGUCAUCCACACA [hsa-mir-4731]	-0.401	-0.519	-0.32	-0.196	-0.603
AGUGUUGUUUUUUCCCCCGCCAAUAUU [hsa-mir-92b]	0.0118	-0.16	-0.34	0.29	-0.606
AGUUACACAGCUCACGAGUGCCU [hsa-mir-370]	0.694	0.113	-0.261	-0.0679	-0.352
AGUUAGAAUUCUUAAGUAUCAAAACUAAAU [hsa-mir-4760]	-0.12	0.106	0.216	0.252	-1.22
AGUUCAGGAGGUGGCACUGCUGUGUGUGAGCU [hsa-mir-6876]	1.27	0.97	0.801	0.631	1.55
AGUUCCUGAUUAAGAAAUGGAAUU [hsa-mir-4699]	-1	-0.814	-0.435	-0.107	-0.224
AGUUCGCUUUUAUUAAUGACGAAUA [hsa-mir-410]	-0.121	-0.628	-0.624	-0.0101	-0.994
AGUUGAACACUUGUUGGGACAACCU [hsa-mir-4421]	0.711	0.971	0.939	0.156	-0.336
AGUUGGACACUCCAUGUGGUAGAGUGUC [hsa-mir-223]	0.0461	0.563	0.617	-0.0653	0.453
AGUUGUGAAUUCUCAAAACACCU [hsa-mir-660]	-0.129	-0.417	-0.401	-0.349	-0.342
AGUUUCUGGAAGUUCUGACAUUCCAGAAACU [hsa-mir-3199-1]	-0.95	-1.1	-0.846	-0.409	-0.18
AGUUUCUGGAAUGUCAGAACUUCCAGAAACU [hsa-mir-3199-2]	-0.865	0.392	0.748	0.034	-0.327
